Data: patent US12297272B2, “IgG Fc variants for veterinary use” (Elanco US Inc., priority 2017, dated 2025)

Key:
[1] = cited from earlier work
[2] = format: in vitro ADME, feline; details: pH 7.2
Procedure: (§1) GLP1-G8_I_VARfeIgG2 (SEQ ID NO: 26) was stored in PBS, pH7.2 with feline serum at 37° C. for 24 hours to test in vitro serum stability.

[3] = format: in vitro ADME, feline
Procedure: (lane 1), in PBS for 24 hours at 37° C. (lane 2), in PBS for 24 hours at 4° C. (lane 9). A mouse anti-GLP1 antibody was used.
as §1

GLP1R = biological target: T1, GLP1R (Homo sapiens, UniProt P43220); assay: Long-term storage stability, CHOK-1-GL1R cells with cAMP-Glo Max Assay; format: cell-based; details: stored in PBS, pH7.2, 1.3 mg/mL, 2-8° C. for one year
T1 construct: host or cells: CHO-K1 (hamster ovarian cell line), CHOK-1-GL1R
T1 sequence (P43220 24-463): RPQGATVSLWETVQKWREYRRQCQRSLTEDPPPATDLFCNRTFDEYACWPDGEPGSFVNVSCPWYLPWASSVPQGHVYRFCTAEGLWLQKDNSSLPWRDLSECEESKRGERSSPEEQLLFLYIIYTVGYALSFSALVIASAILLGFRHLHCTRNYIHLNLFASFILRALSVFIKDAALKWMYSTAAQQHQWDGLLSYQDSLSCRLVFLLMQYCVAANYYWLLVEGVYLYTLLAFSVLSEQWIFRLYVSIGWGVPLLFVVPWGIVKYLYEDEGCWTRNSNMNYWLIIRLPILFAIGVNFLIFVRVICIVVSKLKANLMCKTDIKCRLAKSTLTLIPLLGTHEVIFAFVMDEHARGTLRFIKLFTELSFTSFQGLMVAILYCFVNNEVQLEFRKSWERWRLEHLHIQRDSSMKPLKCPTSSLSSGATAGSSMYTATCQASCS
Procedure: GLP1-G8_I_VARfeIgG2 (SEQ ID NO: 26) was stored in PBS, pH7.2 at a concentration of 1.3 mg/mL, placed in 1.5 mL Eppendorf tube, and stored at 2-8° C. for one year (Lot 2-29-2016). GLP1-G8_I_VARfeIgG2 (SEQ ID NO: 26) was also stored in PBS, pH7.2 at a concentration of 10 mg/mL, placed in 1.5 mL Eppendorf tube, and stored at 2-8° C. for one day (Lot 2-2-2017).
CHOK-1-GL1R cells were plated in a 96-well plate (Corning, Cat #3610) at a density of 20,000 cells per well in F-12K Medium (ATCC, Cat #ATCC® 30-2004) supplemented with 10% Fetal Bovine Serum, heat inactivated (Sigma, Cat #2868) and incubated at 37° C., 5% CO2 for 24 hours. […] (Sigma Aldrich, Cat. #B8279) to a final concentration 100 μL.
The cells were incubated at room temperature for 30 minutes. In this process, upon GLP1 binding to the Gs-coupled GLP1R receptor, Gs stimulates adenylate cyclase to generate cAMP. […]
Mono-oxygenation of luciferin was catalyzed by luciferase in the presence of Mg^2+ and ATP that presented in the cell lysate, resulting in a luminescent signal proportional to the amount of ATP in the cells. At the end of 10 min incubation, the plate was read on a Synergy HT microplate reader (Biotek, Winooski, VT). Luminescence is proportional to ATP levels but inversely proportional to cAMP levels. Thus, as cAMP concentration increases, luminescence decreases.

[4] = in vivo, sc, 2 mg/kg
Procedure: (§2) The plate was sealed and incubated overnight at 4° C. […] After removing the blocking buffer, serial dilutions of reference standard and samples in blocking buffer were added (100 μl/well) and the plate was incubated for 2 hours at room temperature. […] TMB substrate (ScyTek, Catalog No. TM1999) was added (100 μl/well) and allowed to incubate at room temperature for 1 minute. The reaction was stopped by the addition of 2M H2SO4 (50 μl/well).

[5] = Differential scanning fluorimetry, stability at various pH; format: physicochemical; details: n = 3, 10 μg construct
Description: Furthermore, differential scanning fluorimetry was used to assess the stability of the contiguous polypeptides at various pH, as reflected by mean melting point temperature (n=3) (Table 9, below). The increased stability of the variant feline IgG2 hinge is most evident at pH 6.

[6] = in vivo, sc, 2 mg/kg; remark: listed apart in the source
[7] = In vivo pharmacokinetics in cats, serum concentration by cell-based activity assay; details: single dose 2 mg/kg subcutaneous, 5 cats, 0 to 168 hours
[8] = In vivo pharmacokinetics in cats, serum concentration by quantitative ELISA; details: single dose 2 mg/kg subcutaneous, 5 cats
Procedure: as §2

Molecule | in vivo half-life [1] | activity after serum incubation [2] | degradation by Western blot [3] | cellular activity after storage (GLP1R) | mean serum half-life (t1/2) [4] | Mean Melting Point Temperature (Tm) ([5]; pH 5) | Mean Melting Point Temperature (Tm) ([5]; pH 6) | Mean Melting Point Temperature (Tm) ([5]; pH 7) | Mean Melting Point Temperature (Tm) ([5]; pH 8) | mean t1/2 [6] | mean AUC [7] | average Cmax [8] | average Tmax [8] | mean area under the curve (AUC) [8]
Native GLP1: Glucagon-like peptide-1 (GLP1), a potent antihyperglycemic hormone | approximately 2 minutes | – | – | – | – | – | – | – | – | – | – | – | – | –
GLP1-G8_I_VARfeIgG2: Formula I GLP1-G8 contiguous polypeptide comprising variant feline IgG2 Fc of SEQ ID NO: 17 (Gly to Cys at position 14) (protein, Synthetic GLP1-G8_I_VARfeIgG2) HGEGTFTSDVSSYLEGQAAKEFIAWLVKGGGGSGGGGSGGGGSGGGGSPKTASTIESKTGECPKCPVPEIPGAPSVFIFPPKPKDTLSISRTPEVTCLVVDLGPDDSNVQITWFVDNTEMHTAKTRPREEQFNSTYRVVSVLPILHQDWLKGKEFKCKVNSKSLPSAMERTISKAKGQPHEPQVYVLPPTQEELSENKVSVTCLIKGFHPPDIAVEWEITGQPEPENNYQTTPPQLDSDGTYFLYSRLSVDRSHWQRGNTYTCSVSHEALHSHHTQKSLTQSPGK | – | activity was maintained | no visible degradations were observed | maintained cellular activity | 39 h | 53.1 °C | 59.7 °C | 59.9 °C | 58.2 °C | 36 h | about 840 μg(h)/mL | 12000 ng/mL | 22 h | about 950 m(h)/mL
